PMC7242879, “Exploring the Molecular Basis for Substrate Affinity and Structural Stability in Bacterial GH39 β-Xylosidases” (Frontiers in Bioengineering and Biotechnology, 2020)

Tested on: O=[N+]([O-])c1ccc(O[C@@H]2OC[C@@H](O)[C@H](O)[C@H]2O)cc1
Assay: purified protein
Settings: McIlvaine buffer 50 mM pH 5.5, 40 °C, 0.1–25 mM substrate, 13.6 μM enzyme, 15 min

XacXynB (Xanthomonas citri subsp. citri 306)
Km: 1930 ± 250 µM
kcat: 4.43 ± 0.142 s⁻¹
kcat/Km: 2300 M⁻¹ s⁻¹
